The test deals with T1, heregulin (125I-HRG) (human, UniProt Q02297).
T1 chain: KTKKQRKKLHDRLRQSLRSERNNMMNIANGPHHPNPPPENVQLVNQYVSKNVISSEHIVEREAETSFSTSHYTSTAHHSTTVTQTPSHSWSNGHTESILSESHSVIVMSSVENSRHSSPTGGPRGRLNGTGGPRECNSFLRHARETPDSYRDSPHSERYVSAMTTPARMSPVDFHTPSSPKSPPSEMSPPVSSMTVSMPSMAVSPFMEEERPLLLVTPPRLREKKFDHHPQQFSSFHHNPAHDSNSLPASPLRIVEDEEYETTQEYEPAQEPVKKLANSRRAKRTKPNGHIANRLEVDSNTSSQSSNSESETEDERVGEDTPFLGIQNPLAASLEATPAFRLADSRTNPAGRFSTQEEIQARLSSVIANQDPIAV
As to the kind of experiment: other 125I-HRG radioligand binding, Scatchard.

B1: ErbB4-IgG (antibody)
chain: QSVCAGTENKLSSLSDLEQQYRALRKYYENCEVVMGNLEITSIEHNRDLSFLRSVREVTGYVLVALNQFRYLPLENLRIIRGTKLYEDRYALAIFLNYRKDGNFGLQELGLKNLTEILNGGVYVDQNKFLCYADTIHWQDIVRNPWPSNLTLVSTNGSSGCGRCHKSCTGRCWGPTENHCQTLTRTVCAEQCDGRCYGPYVSDCCHRECAGGCSGPKDTDCFACMNFNDSGACVTQCPQTFVYNPTTFQLEHNFNAKYTYGAFCVKKCPHNFVVDSSSCVRACPSSKMEVEENGIKMCKPCTDICPKACDGIGTGSLMSAQTVDSSNIDKFINCTKINGNLIFLVTGIHGDPYNAIEAIDPEKLNVFRTVREITGFLNIQSWPPNMTDFSVFSNLVTIGGRVLYSGLSLLILKQQGITSLQFQSLKEISAGNIYITDNSNLCYYHTINWTTLFSTINQRIVIRDNRKAENCTAEGMVCNHLCSSDGCWGPGPDQCLSCRRFSRGRICIESCNLYDGEFREFENGSICVECDPQCEKMEDGLLTCHGPGPDNCTKCSHFKDGPNCVEKCPDGLQGANSFIFKYADPDRECHPCHPNCTQGCNGPTSHDCIYYPWTGHSTLPQHARTP
modifications: homodimeric ECD-human IgG Fc immunoadhesin
With B1, the dissociation constant (Kd) came out at 4.98 nM.

B2: ErbB3/4-IgG (antibody)
chain 1: not shown
chain 2: B1 chain
modifications: heterodimeric ECD-human IgG Fc immunoadhesin (mixture with homodimers)
Regarding B2, the dissociation constant Kd turned out to be 5.98 nM.

(Values after patent publication US8226935 (dated 2012).)
